Tests used:
[1] = molecular target: CPEB1 ZZ domain (isolated) (Homo sapiens, UniProt Q9BZB8 503-566); experiment: NMR titration
[2] = molecular target: T1, CPEB1 RRM12 (tandem RRMs) (Homo sapiens, UniProt Q9BZB8 285-355+361-514, internal_change); experiment: NMR
[3] = molecular target: T1, CPEB1 RRM12 (tandem RRMs); experiment: NMR titration and solution structure
[4] = molecular target: T2, CPEB4 RRM12 (tandem RRMs) (Homo sapiens, UniProt Q17RY0-3 54-256); experiment: NMR titration
T2 sequence: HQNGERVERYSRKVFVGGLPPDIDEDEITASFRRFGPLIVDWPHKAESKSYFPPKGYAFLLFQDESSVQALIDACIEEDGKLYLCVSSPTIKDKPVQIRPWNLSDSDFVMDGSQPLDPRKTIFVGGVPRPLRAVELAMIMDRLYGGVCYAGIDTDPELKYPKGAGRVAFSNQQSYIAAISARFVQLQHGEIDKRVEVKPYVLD

[5] = molecular target: T1, CPEB1 RRM12 (tandem RRMs); experiment: NMR titration

UUUUUAU (ssRNA) [UUUUUAU (consensus CPE)]
binding result [1]: no binding

CUUUA (ssRNA)
binding result [2]: binds

UUUUA (ssRNA)
binding result [3]: binds

UUUUAU (ssRNA) [UUUUAU (consensus CPE)]
binding result [4]: binds | binding result [5]: binds

— publication PMC4083092
